Measured values as given in article PMC11157272, “Fructose-1-kinase has pleiotropic roles in Escherichia coli” (The Journal of Biological Chemistry, 2023).

Assays:
[1] = molecular target: fructose-1-kinase (FruK), untagged, expressed from pET-3a and purified (E. coli), P0AEW9; assay: atomic force microscopy; single-protein samples (FruK+DNA, Cra+DNA) in 50 mM Hepes, 100 mM KCl, 0.1 mM EDTA, 10 mM MgCl2, 0.3 mM DTT, pH 7.0, 60 min at room temperature, deposited on functionalised mica; molecular volumes converted to molecular weights
[2] = molecular target: T1, His-tagged Cra (pET3a-Cra-C-His) for biolayer interferometry (E. coli), P0ACP1; assay: BLI; equilibrium BLI (Octet RED96): biotinylated operator DNA on streptavidin tips, dipped into pre-equilibrated 2.5 nM Cra dimer plus varied FruK; 50 mM Hepes, 0.1 M KCl, 0.1 mM EDTA, 10 mM MgCl2, pH 7.0, 0.3 mM DTT, 0.1 mg/mL BSA; room temperature; global fit to Equation 2 with n assumed 1
T1 chain: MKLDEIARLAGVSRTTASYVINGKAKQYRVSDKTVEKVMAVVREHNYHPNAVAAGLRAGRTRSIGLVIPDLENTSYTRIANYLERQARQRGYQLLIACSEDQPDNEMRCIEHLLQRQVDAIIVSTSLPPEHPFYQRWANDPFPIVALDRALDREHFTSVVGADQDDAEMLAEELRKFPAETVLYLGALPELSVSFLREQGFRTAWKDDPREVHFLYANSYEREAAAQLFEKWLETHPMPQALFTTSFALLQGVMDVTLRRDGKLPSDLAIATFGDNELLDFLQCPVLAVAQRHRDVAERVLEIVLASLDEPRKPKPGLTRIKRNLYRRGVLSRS

[3] = molecular target: T2, catabolite repressor activator protein (WT Cra), untagged (E. coli), P0ACP1; assay: as above
T2 chain: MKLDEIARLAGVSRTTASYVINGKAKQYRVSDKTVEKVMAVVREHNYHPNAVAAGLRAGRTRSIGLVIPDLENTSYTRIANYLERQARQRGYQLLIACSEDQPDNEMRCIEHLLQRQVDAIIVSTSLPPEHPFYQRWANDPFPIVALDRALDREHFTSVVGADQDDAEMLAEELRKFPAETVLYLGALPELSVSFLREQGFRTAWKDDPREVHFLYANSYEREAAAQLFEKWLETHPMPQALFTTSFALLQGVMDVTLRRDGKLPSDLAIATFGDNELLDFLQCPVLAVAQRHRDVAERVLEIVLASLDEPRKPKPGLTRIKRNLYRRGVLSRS

[4] = molecular target: T2, catabolite repressor activator protein …; assay: atomic force microscopy; Cra, FruK and 331 bp fruBKA promoter DNA mixed (20 nM Cra/20 nM FruK and 20 nM Cra/10 nM FruK), 50 mM Hepes, 100 mM KCl, 0.1 mM EDTA, 10 mM MgCl2, 0.3 mM DTT, pH 7.0, 60 min at room temperature, deposited on functionalised mica; DNA-bound and DNA-free particles; volumes converted to molecular weights and clustered
[5] = molecular target: the molecule itself; assay: atomic force microscopy; single-protein samples (FruK+DNA, Cra+DNA) in 50 mM Hepes, 100 mM KCl, 0.1 mM EDTA, 10 mM MgCl2, 0.3 mM DTT, pH 7.0, 60 min at room temperature, deposited on functionalised mica; molecular volumes converted to molecular weights
Cra (FruR), WT = Cra (FruR), WT (Escherichia coli (gene from strain …, UniProt P0ACP1 1-334)); assay: BLI; 100 nM Cra; BLI: 50 mM Hepes, 100 mM KCl, 0.1 mM EDTA, 10 mM MgCl2, 0.3 mM DTT, 0.1 mg/mL BSA, pH 7.0, about room temperature; concentrations as dimer; conditions: protein: recombinant; tags: none; chain copies: 2; label: biotin

B1: fructose-1-kinase (FruK), untagged, expressed from pET-3a and purified, P0AEW9 1-312 (enzyme)
chain: MSRRVATITLNPAYDLVGFCPEIERGEVNLVKTTGLHAAGKGINVAKVLKDLGIDVTVGGFLGKDNQDGFQQLFSELGIANRFQVVQGRTRINVKLTEKDGEVTDFNFSGFEVTPADWERFVTDSLSWLGQFDMVCVSGSLPSGVSPEAFTDWMTRLRSQCPCIIFDSSREALVAGLKAAPWLVKPNRRELEIWAGRKLPEMKDVIEAAHALREQGIAHVVISLGAEGALWVNASGEWIAKPPSVDVVSTVGAGDSMVGGLIYGLLMRESSEHTLRLATAVAALAVSQSNVGITDRPQLAAMMARVDLQPFN
modifications: not checked
- stoichiometry N [1]: 2
- Kd [2]: 1.6 nM
- Kd [3]: 2 nM
- stoichiometry N (FruK homodimer per Cra homodimer) [4]: 1

B2: His-tagged FruK (pET3a) for biolayer interferometry, P0AEW9 1-312 (enzyme)
chain: MSRRVATITLNPAYDLVGFCPEIERGEVNLVKTTGLHAAGKGINVAKVLKDLGIDVTVGGFLGKDNQDGFQQLFSELGIANRFQVVQGRTRINVKLTEKDGEVTDFNFSGFEVTPADWERFVTDSLSWLGQFDMVCVSGSLPSGVSPEAFTDWMTRLRSQCPCIIFDSSREALVAGLKAAPWLVKPNRRELEIWAGRKLPEMKDVIEAAHALREQGIAHVVISLGAEGALWVNASGEWIAKPPSVDVVSTVGAGDSMVGGLIYGLLMRESSEHTLRLATAVAALAVSQSNVGITDRPQLAAMMARVDLQPFN
modifications: not checked
- Kd [3]: 2.1 nM

B3: catabolite repressor activator protein (WT Cra), untagged (natural protein, E. coli, UniProt P0ACP1 1-334, looked up)
chain: MKLDEIARLAGVSRTTASYVINGKAKQYRVSDKTVEKVMAVVREHNYHPNAVAAGLRAGRTRSIGLVIPDLENTSYTRIANYLERQARQRGYQLLIACSEDQPDNEMRCIEHLLQRQVDAIIVSTSLPPEHPFYQRWANDPFPIVALDRALDREHFTSVVGADQDDAEMLAEELRKFPAETVLYLGALPELSVSFLREQGFRTAWKDDPREVHFLYANSYEREAAAQLFEKWLETHPMPQALFTTSFALLQGVMDVTLRRDGKLPSDLAIATFGDNELLDFLQCPVLAVAQRHRDVAERVLEIVLASLDEPRKPKPGLTRIKRNLYRRGVLSRS
notes: also called FruR; source: E. coli 3.300, constitutively over-expressed from pHG165a, in lysate; E. coli BLIM, constitutively expressed, purified (ammonium sulfate precipitation, phosphocellulose)
- stoichiometry N [5]: 2

B4: fruBproximal (dsDNA)
DNA 1: ATGCATGTTGTGTGGTTCTTGAAACGTTTCAGCTCACACAGGTCC
DNA 2: GGACCTGTGTGAGCTGAAACGTTTCAAGAACCACACAACATGCAT
modifications: 5' biotin
- binding result (Cra (FruR), WT): binds
